Experimental findings from US20240350596 are described below.

For this data set, the system named is ghrelin (acylated; [3H]-ghrelin labeled on the octanoic acid moiety of the acylated Ser3).
Consider “BChE mutant A199S/F227A/P285Q/S287G/A328W/Y332G”, for which the Relative catalytic efficiency for ghrelin (Relative to CocH3) (fold relative to CocH3) was determined as 3.

“BChE mutant A199S/F227A/P285S/S287G/A328W/Y332G”: the Relative catalytic efficiency for ghrelin (Relative to CocH3) (fold relative to CocH3) is 2.

Regarding BChE mutant A199S/S287G/A328W/Y332G, the Relative catalytic efficiency for ghrelin (Relative to CocH3) (fold relative to CocH3) came out at 2.

In the case of BChE mutant F398I, the Relative catalytic efficiency for ghrelin (Relative to CocH3) (fold relative to CocH3) stood at 2.

For the substance BChE mutant T284S/P285I/F398I, the Relative catalytic efficiency for ghrelin (Relative to CocH3) (fold relative to CocH3) came to 3.

Substance BChE mutant T284S/P285I/V288I had a Relative catalytic efficiency for ghrelin (Relative to CocH3) (fold relative to CocH3) of 3.

Regarding BChE mutant T284S/P285I/V288I/F398I, the Relative catalytic efficiency for ghrelin (Relative to CocH3) (fold relative to CocH3) was found to be 3.

“BChE-M02 (A199S/F227A/P285A/S287G/A328W/Y332G mutant of human BChE)” returned a Relative catalytic efficiency for ghrelin (Relative to CocH3) (fold relative to CocH3) of 3.

As to “CocH3 (A199S/F227A/S287G/A328W/Y332G mutant of human BChE)”, the Relative catalytic efficiency for ghrelin (Relative to CocH3) (fold relative to CocH3) was 1.

Wild-type human BChE returned a Relative catalytic efficiency for ghrelin (Relative to CocH3) (fold relative to CocH3) of 1.5.
